Measured values as given in the supplement of paper PMC10567573.

B1: KLHL14 (parent)
chain: YVIGGRNETGYLSSVECYNLETNE

Variants of: B1
Assay: protein stability index of a GFP-peptide fusion (GPS, HEK-293T) (PSI 1-6); higher = more stable
Conditions: c terminus: a fixed tail appended
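Further: lentivirally expressed fusions sorted by FACS into six bins by GFP to DsRed ratio, PSI derived from sequencing read proportions per bin multiplied by bin number.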

| Variant | protein stability index |
| --- | --- |
| N19E | 2.22 |
| N19I | 2.07 |
| N19R | 1.49 |
| N19P | 2.1 |
| N19A | 2.15 |
| N19H | 2.04 |
| N19K | 2.13 |
| N19F | 3.39 |
| N19M | 1.8 |
| N19L | 2.08 |
| N19W | 2.77 |
| N19D | 2.41 |
| N23I | 1.56 |
| N23F | 1.88 |
| N23L | 1.66 |
| N23A | 2.06 |
| N23P | 1.75 |
| N23R | 1.92 |
| N23K | 1.96 |
| N23S | 1.86 |
| N23M | 1.89 |
| N23H | 1.86 |
| N23V | 2.17 |
| N7F | 2.29 |

| Variant | protein stability index |
| --- | --- |
| N7L | 2.36 |
| N7M | 1.66 |
| N7G | 1.99 |
| N7Y | 1.5 |
| N7K | 2.27 |
| N7Q | 1.91 |
| N7R | 2.38 |
| N7C | 1.7 |
| N7P | 1.84 |
| N7I | 1.74 |
| N7D | 2.5 |
| N7T | 1.85 |
| G4E | 2.11 |
| G4H | 2.4 |
| G4N | 1.89 |
| G4T | 1.5 |
| G4P | 2.56 |
| G4I | 2.1 |
| G4S | 2.46 |
| G4A | 1.77 |
| G4Y | 2.42 |
| G4Q | 2.55 |
| G4K | 2.34 |
| G4M | 2.31 |

| Variant | protein stability index |
| --- | --- |
| G4F | 1.31 |
| G4V | 1.3 |
| G4L | 1.47 |
| R6F | 1.5 |
| R6M | 1.69 |
| R6W | 1.96 |
| R6S | 2.35 |
| R6L | 2.09 |
| R6K | 2.05 |
| R6I | 1.67 |
| R6H | 1.9 |
| R6Y | 1.69 |
| R6G | 1.92 |
| R6C | 2.21 |
| R6D | 2.57 |
| E21Y | 2.17 |
| E21K | 2.26 |
| E21T | 1.68 |
| E21L | 1.67 |
| E21C | 2.61 |
| E21Q | 2.39 |
| E21W | 3.54 |
| E21F | 2.62 |
| E21N | 1.55 |

| Variant | protein stability index |
| --- | --- |
| E21A | 2.66 |
| E21I | 2.05 |
| E21H | 1.63 |
| E8L | 1.32 |
| E8W | 2.08 |
| E8A | 1.45 |
| E8I | 1.81 |
| E8P | 1.16 |
| E8T | 1.78 |
| E8V | 1.78 |
| E8K | 1.89 |
| E8Y | 1.84 |
| E8D | 1.56 |
| E8F | 1.99 |
| E8N | 1.8 |
| E8S | 2.09 |
| E8M | 2.21 |
| S14I | 2.56 |
| S14T | 1.99 |
| S14M | 2.3 |
| S14V | 2.08 |
| S14F | 1.47 |
| S14G | 2.31 |
| S14N | 2.12 |

| Variant | protein stability index |
| --- | --- |
| S14D | 2.38 |
| S14C | 2.4 |
| S14R | 1.58 |
| S14Y | 2.01 |
| S14Q | 2.5 |
| S14P | 1.61 |
| S14H | 1.8 |
| S14L | 1.75 |
| S14E | 2.91 |
| S14W | 2.88 |
| S14K | 1.35 |
| E24N | 1.99 |
| E24I | 2.19 |
| E24S | 2.07 |
| E24K | 1.75 |
| E24G | 1.69 |
| E24V | 1.96 |
| E24T | 1.63 |
| E24R | 2.17 |
| E24L | 2.27 |
| E24Y | 2.08 |
| E24F | 1.95 |
| E24W | 1.67 |
| E24Q | 1.49 |

| Variant | protein stability index |
| --- | --- |
| E24D | 2.14 |
| E24P | 1.72 |
| E24H | 1.8 |
| Y1A | 4.43 |
| Y1V | 3.2 |
| Y1R | 4.39 |
| Y1D | 4.64 |
| Y1S | 4.63 |
| Y1P | 4.82 |
| Y1Q | 4.68 |
| Y1N | 4.25 |
| Y1K | 4.12 |
| Y1F | 2.19 |
| Y1G | 4.99 |
| Y1I | 2.06 |
| Y1W | 2.87 |
| Y1C | 3.48 |
| Y11C | 2.45 |
| Y11T | 2.75 |
| Y11L | 2.2 |
| Y11G | 2.85 |
| Y11R | 2.13 |
| Y11Q | 3.1 |
| Y11K | 2.86 |

| Variant | protein stability index |
| --- | --- |
| Y11H | 2.45 |
| Y11S | 2.42 |
| Y11F | 1.83 |
| Y11V | 2.52 |
| Y11A | 2.71 |
| Y11E | 3.9 |
| Y11M | 1.96 |
| Y11I | 2.1 |
| Y11P | 3.71 |
| G5P | 1.89 |
| G5E | 3.15 |
| G5A | 1.71 |
| G5Y | 1.72 |
| G5D | 3.12 |
| G5N | 1.92 |
| G5R | 1.71 |
| G5L | 2.82 |
| G5M | 1.69 |
| G5Q | 2.1 |
| G5H | 1.74 |
| G5K | 1.76 |
| G5S | 2.31 |
| L20H | 2.34 |
| L20E | 3.04 |

| Variant | protein stability index |
| --- | --- |
| L20G | 1.82 |
| L20D | 2.79 |
| L20A | 2.12 |
| L20N | 2.79 |
| L20W | 1.55 |
| L20T | 2.36 |
| L20K | 2.09 |
| L20C | 2.09 |
| L20M | 1.96 |
| L20Y | 2.02 |
| L20R | 2.39 |
| L20V | 1.78 |
| S13H | 1.58 |
| S13T | 1.79 |
| S13V | 1.89 |
| S13M | 1.91 |
| S13R | 2.23 |
| S13N | 1.78 |
| S13F | 2.13 |
| S13Y | 1.79 |
| S13G | 1.81 |
| S13C | 2.24 |
| S13Q | 1.64 |
| S13D | 2.76 |

| Variant | protein stability index |
| --- | --- |
| S13P | 2.6 |
| S13I | 1.84 |
| S13A | 1.65 |
| L12E | 3.23 |
| L12S | 2.59 |
| L12H | 1.92 |
| L12N | 2.78 |
| L12T | 2.57 |
| L12R | 3.28 |
| L12M | 2.33 |
| L12Y | 1.8 |
| L12D | 3.42 |
| L12C | 2.32 |
| L12P | 2.64 |
| L12A | 2.62 |
| L12F | 1.8 |
| L12K | 2.16 |
| L12Q | 2.42 |
| Y18C | 1.71 |
| Y18K | 1.96 |
| Y18A | 2.76 |
| Y18G | 2.57 |
| Y18T | 2.72 |
| Y18P | 2.45 |

| Variant | protein stability index |
| --- | --- |
| Y18L | 2.11 |
| Y18Q | 2.34 |
| Y18R | 2.6 |
| Y18V | 2.05 |
| Y18S | 2.14 |
| Y18M | 2.4 |
| V2D | 4.57 |
| V2K | 3.91 |
| V2F | 3.32 |
| V2I | 2.14 |
| V2N | 4.24 |
| V2T | 3.5 |
| V2H | 2.15 |
| V2L | 3.33 |
| V2G | 4 |
| V2M | 3.87 |
| V2A | 3.08 |
| V2S | 3.89 |
| V2C | 2.87 |
| V2E | 4.59 |
| V2W | 2.44 |
| V2R | 3.4 |
| V15F | 1.52 |
| V15D | 2.95 |

| Variant | protein stability index |
| --- | --- |
| V15A | 1.76 |
| V15M | 1.84 |
| V15P | 2.46 |
| V15I | 1.83 |
| V15C | 1.66 |
| V15S | 2.5 |
| V15H | 2.24 |
| V15G | 2.05 |
| V15Q | 2.49 |
| V15T | 1.74 |
| V15L | 1.9 |
| V15R | 2.01 |
| I3Q | 2.06 |
| I3H | 1.83 |
| I3P | 2.65 |
| I3T | 2.18 |
| I3F | 1.76 |
| I3A | 3.4 |
| I3D | 2.39 |
| I3M | 2.1 |
| I3Y | 1.3 |
| I3K | 1.58 |
| I3R | 1.49 |
| T9W | 1.78 |

| Variant | protein stability index |
| --- | --- |
| T9S | 1.93 |
| T9F | 2.21 |
| T9P | 1.9 |
| T9M | 2.37 |
| T9Y | 1.58 |
| T9R | 2.76 |
| T9G | 1.69 |
| T9H | 1.6 |
| T9A | 1.9 |
| T9N | 1.83 |
| T9Q | 2 |
| T9K | 2.13 |
| T9D | 2.23 |
| E16S | 2.18 |
| E16H | 1.62 |
| E16Q | 1.96 |
| E16M | 1.45 |
| E16W | 2.93 |
| E16N | 2.33 |
| E16R | 2.16 |
| E16Y | 1.84 |
| E16F | 3.4 |
| E16D | 2.41 |
| E16G | 1.54 |

| Variant | protein stability index |
| --- | --- |
| E16A | 1.27 |
| E16I | 1.83 |
| E16V | 3.5 |
| T22N | 1.63 |
| T22M | 1.49 |
| T22C | 1.79 |
| T22V | 2.6 |
| T22A | 2 |
| T22P | 1.76 |
| T22K | 2.2 |
| T22G | 1.86 |
| T22I | 1.84 |
| T22W | 1.53 |
| T22D | 2.07 |
| T22F | 1.54 |
| T22E | 2.84 |
| T22Q | 1.94 |
| T22Y | 2.06 |
| C17N | 2.44 |
| C17Y | 1.78 |
| C17K | 2.28 |
| C17E | 2.22 |
| C17T | 2.56 |
| C17P | 2.23 |

| Variant | protein stability index |
| --- | --- |
| C17V | 1.48 |
| C17A | 2.06 |
| C17W | 2.17 |
| C17G | 2.8 |
| C17I | 2.5 |
| C17Q | 2.43 |
| C17M | 1.78 |
| G10Y | 1.6 |
| G10N | 1.65 |
| G10K | 2.13 |
| G10T | 1.6 |
| G10S | 1.93 |
| G10D | 3.07 |
| G10E | 3.13 |
| G10F | 2.81 |
| G10H | 1.45 |
| G10L | 2.62 |
| G10Q | 2.29 |
| G10R | 2.55 |
| G10I | 1.25 |
| G10M | 1.68 |
| G10W | 2.21 |
